# In the RNAGym collection of RNA variant scans (doi:10.7554/elife.90254):
# B1: LINE1-full (parent)
# chain: UACGUAGGUGGUUUUCCCCUGAUAGUGCUAAGGGGGCCUGGAAGUUUGGACUGGGCAGAGCUCAACACAGCGUGGCAAAGUGGCUGUGGCUAGACUGCCUCUCUGGAUUCCUCGUCACUCAGCAGGGCAUCUCUGAGAGAAAUGCC
# Variants of: B1
# Assay: self-cleavage, relative activity (ratio to wild type); higher = more cleavage; in vitro, sequencing; the parent is a self-cleaving ribozyme
row,Variant,self-cleavage
1,U12C A64U,1.53
2,U12C A64C,0.7
3,U9G U45C,0.25
4,U9G U45A,0.73
5,U9C U23C,1.68
6,U12C U115C,1.21
7,U9G A79G,0.63
8,U12C A141G,1.5
9,U12C A141U,0.87
10,U9C U62A,0.14
11,U9C U26C,1.35
12,U12C A136G,1.41
13,U12A A79G,1.13
14,G10A A78U,1.83
15,U12C A43C,1.45
16,U12C A43G,1.33
17,G10A A136U,0.95
18,U12C A124G,1.23
19,G10A U45C,1.4
20,U12C U20C,1.24
21,U12C G139A,0.94
22,U9G A43G,0.85
23,U12C A94U,0.38
24,U12C C133A,1.67

row,Variant,self-cleavage
1,U9C U81G,1.31
2,U12A U46C,1.31
3,U9G G44A,1.53
4,G10A U130G,0.93
5,U9C U52C,1.36
6,U9C U52A,2.31
7,G11U A124U,1.31
8,U9C C145A,1.3
9,U9G A94G,0.22
10,G11A U46C,0.94
11,G11A U29A,1.34
12,U12A A140U,1.09
13,U12A A140G,1.51
14,U9G A77U,1.44
15,U12C G86A,0.14
16,G10A A77G,1.31
17,U12A G32A,1.08
18,U12A G32C,0.8
19,U12C G49U,1.35
20,U9C G21A,1.32
21,U9C U102A,1.11
22,U9C U102C,1.3
23,U12C G127C,1.84
24,U9G A42G,1.4

row,Variant,self-cleavage
1,G10A U47C,1.37
2,G10A G32A,0.73
3,U12C G97A,0.22
4,U12A A77G,1.88
5,U12A G137U,1.05
6,U12A C113U,1.36
7,U12C U109C,1.48
8,U12C U87C,0.21
9,G11A A77U,1.58
10,U12C A42U,1
11,G10U C145A,1
12,U12C G93A,0.08
13,U12A G49A,1.05
14,U12A U39C,1.17
15,U12A U52C,1.06
16,U12A U52A,1.28
17,U12C C111U,1.74
18,G11A U108C,1.58
19,U9C U112A,1.46
20,U9C U112C,1.45
21,U9G A50G,0.93
22,U9G A64U,0.53
23,U9G A64C,0.18
24,U12A U108C,1.28

row,Variant,self-cleavage
1,G10U U130C,0.81
2,U12C U14A,0.81
3,U12C U14G,0.59
4,U9G C116G,1.18
5,U12C C103A,1.01
6,G10A U14C,1.45
7,U12A U102C,1.42
8,U12A C123U,1.38
9,G11A U12C,0.33
10,G11A U12G,0.47
11,U12C U100C,1.6
12,U9G U62C,0.16
13,G10U A59U,0.72
14,U12C A138G,1.37
15,G10A U12C,1.04
16,U9C G48C,1.09
17,U9C G34C,0.8
18,U9C G34A,1.05
19,U9C U115C,1.29
20,U9C U115A,1.55
21,G11A A121U,0.95
22,U12A A69G,0.42
23,G10A A138G,1.2
24,G11U A79U,1.75

row,Variant,self-cleavage
1,U12C U26G,0.58
2,U12C U47G,1.21
3,U12C U47A,0.71
4,U12A G35C,1.52
5,U12A G35A,0.98
6,U9C C146U,1.1
7,G10A A121G,1.37
8,G11A A124U,1.43
9,U12A U96G,0.38
10,U9C G93A,0.05
11,U9C G106A,1.71
12,G10A A59G,0.17
13,U9G U102A,1.44
14,U9G U108C,1.37
15,U9C U39C,1.14
16,U9C U39A,1.17
17,U12C U13A,0.27
18,U12C U13C,1.2
19,U9C G89C,0.05
20,U9C G89U,0.08
21,U12C A30G,0.87
22,U12C A30U,0.53
23,U12C G122U,1.04
24,U12C G41A,1.26

row,Variant,self-cleavage
1,U12A U87C,0.25
2,G10A U26C,0.95
3,U9G C68U,0.21
4,U9C G41A,1.06
5,U12C A67U,0.21
6,U12C A67C,0.09
7,U12C A67G,0.77
8,U12A U85A,0.15
9,U12C G27A,0.87
10,U12C U102A,1.66
11,U9C G97A,0.33
12,U12C C98U,0.26
13,U12C A92G,0.09
14,U12C A92U,0.56
15,U12C A92C,0.81
16,U12C A59U,0.13
17,G10C U73C,1.64
18,G10A U23C,1.49
19,U9C U45C,1.27
20,U12C U91C,0.92
21,U12C G74A,1
22,U9C G137A,1.15
23,G11A A78G,1.38
24,G11A U20C,2.58

row,Variant,self-cleavage
1,G11A U20G,1.05
2,U9C G82U,1.34
3,U12A U73A,1.47
4,U12A U73G,0.73
5,U12A U73C,1.11
6,U12C A107C,1.53
7,U12C A107U,0.66
8,G10A U85C,0.09
9,U9C U12G,1.15
10,U9C U12C,1.13
11,U9C U12A,1.51
12,U12C G32A,1.54
13,U12C U62A,0.13
14,U12C U62C,0.09
15,U12A G127A,0.66
16,U9C U85G,0.27
17,G11A A65G,0.02
18,U12C A78C,2.54
19,U12C A78G,0.95
20,G11A C28G,1.12
21,U12C U52A,1.41
22,U12C G25A,1.18
23,U12C G54A,0.62
